Numbering of substitutions follows the chain as printed.
B1: cr337 (nucleic acid)
guide: GTTTAAGAGCTAAGCTGGAAACAGCATAGCAAGTTTAAATAACGCTAGTCGGTTATCAACTTGAGAAAGTGGCACCGAGTCGGTGCT
modifications: listed as DNA, chemistry not fully specified
B2: cr860 (nucleic acid)
guide: B1 guide with T34C, C43A, G51T, G65A
modifications: listed as DNA, chemistry not fully specified
B3: cr665 (nucleic acid)
guide: B1 guide with G33C, C43G, G51C, G65A, G72C, C86G
modifications: listed as DNA, chemistry not fully specified
B4: cr750 (nucleic acid)
guide: B1 guide with T34G, C43G, G51C, C60T, G65A, G69A
modifications: listed as DNA, chemistry not fully specified
B5: cr795 (nucleic acid)
guide: B1 guide with C43T, G51A, G65A, G72T, A74T, T84A, C86A
modifications: listed as DNA, chemistry not fully specified
B6: cr993 (nucleic acid)
guide: B1 guide with G33C, C43G, G51C, A59T, G65A, T70A
modifications: listed as DNA, chemistry not fully specified
B7: cr067 (nucleic acid)
guide: B1 guide with G1C, T4G, C43G, G51C, G65A
modifications: listed as DNA, chemistry not fully specified
B8: cr455 (nucleic acid)
guide: B1 guide with C43G, G51C, C60T, T62G, G65A, A67C, G69A
modifications: listed as DNA, chemistry not fully specified
B9: cr475 (nucleic acid)
guide: B1 guide with A41T, C43G, G51C, G65T
modifications: listed as DNA, chemistry not fully specified
B10: cr268 (nucleic acid)
guide: B1 guide with T34G, C43G, G51C, G65A, C76A, G82T
modifications: listed as DNA, chemistry not fully specified
B11: cr509 (nucleic acid)
guide: B1 guide with G65A, C75A, G83T
modifications: listed as DNA, chemistry not fully specified
B12: cr528 (nucleic acid)
guide: B1 guide with A31C, A32G, G33C, C43G, G51C, G65A
modifications: listed as DNA, chemistry not fully specified
B13: cr613 (nucleic acid)
guide: B1 guide with C45G, G48C, G65A
modifications: listed as DNA, chemistry not fully specified
B14: cr862 (nucleic acid)
guide: B1 guide with G29T, A32C, G33C, C43G, G51C, G65A
modifications: listed as DNA, chemistry not fully specified
B15: cr587 (nucleic acid)
guide: B1 guide with C43G, G44C, G51C, G65A
modifications: listed as DNA, chemistry not fully specified
B16: cr445 (nucleic acid)
guide: B1 guide with C43G, G51C, G65A, C75T, G77C, C81T, G83C
modifications: listed as DNA, chemistry not fully specified
B17: cr332 (nucleic acid)
guide: B1 guide with G33T, T34A, C43G, G51C, G65A
modifications: listed as DNA, chemistry not fully specified
B18: cr295 (nucleic acid)
guide: B1 guide with T34G, C43G, G51C, G65A, C73G, G85C
modifications: listed as DNA, chemistry not fully specified
B19: cr648 (nucleic acid)
guide: B1 guide with G33C, C43G, G44T, C50A, G51C, G65A
modifications: listed as DNA, chemistry not fully specified
B20: cr949 (nucleic acid)
guide: B1 guide with T34G, C43G, G51C, G65T
modifications: listed as DNA, chemistry not fully specified
B21: cr187 (nucleic acid)
guide: B1 guide with T34G, C43G, G51C, G65A, G77A, C81T
modifications: listed as DNA, chemistry not fully specified
B22: cr649 (nucleic acid)
guide: B1 guide with G33C, C43G, C45T, G48A, G51C, G65A
modifications: listed as DNA, chemistry not fully specified
B23: cr704 (nucleic acid)
guide: B1 guide with C43G, G51C, G65A, T70C
modifications: listed as DNA, chemistry not fully specified
B24: cr204 (nucleic acid)
guide: B1 guide with T34C, C43G, G44T, C50A, G51C, G65A
modifications: listed as DNA, chemistry not fully specified
B25: cr280 (nucleic acid)
guide: B1 guide with G33C, C43G, G51C, G65A, G72T, C86A
modifications: listed as DNA, chemistry not fully specified
B26: cr111 (nucleic acid)
guide: B1 guide with G33C, C43G, G51C, G65A, C76A, G82T
modifications: listed as DNA, chemistry not fully specified
B27: cr130 (nucleic acid)
guide: B1 guide with A32T, G33T, C43G, G51C, G65A
modifications: listed as DNA, chemistry not fully specified
B28: cr103 (nucleic acid)
guide: B1 guide with A32T, C43G, G51C, G52T, G65A, T80G
modifications: listed as DNA, chemistry not fully specified
B29: cr044 (nucleic acid)
guide: B1 guide with T3G, A8T, C43G, G51C, G65A
modifications: listed as DNA, chemistry not fully specified
B30: cr328 (nucleic acid)
guide: B1 guide with G33C, C43G, G51C, G65A, A74C, T84G
modifications: listed as DNA, chemistry not fully specified
B31: cr663 (nucleic acid)
guide: B1 guide with T34G, C43G, G51C, G65A, G77T, C81A
modifications: listed as DNA, chemistry not fully specified
B32: cr524 (nucleic acid)
guide: B1 guide with C43G, G51C, A64T, G65A
modifications: listed as DNA, chemistry not fully specified
B33: cr137 (nucleic acid)
guide: B1 guide with A42G, C43G, G51C, G52T, A64C, G65A
modifications: listed as DNA, chemistry not fully specified
B34: cr024 (nucleic acid)
guide: B1 guide with G1T, T3G, C43G, G51C, G65A
modifications: listed as DNA, chemistry not fully specified
B35: cr250 (nucleic acid)
guide: B1 guide with C43G, T49A, G51C, G65A, G71C, T80G
modifications: listed as DNA, chemistry not fully specified
B36: cr054 (nucleic acid)
guide: B1 guide with G7C, A8C, C43G, G51C, G65A
modifications: listed as DNA, chemistry not fully specified
B37: cr081 (nucleic acid)
guide: B1 guide with G1A, T4A, C43G, G51C, G65A
modifications: listed as DNA, chemistry not fully specified
B38: cr052 (nucleic acid)
guide: B1 guide with G1A, T3G, C43G, G51C, G65A
modifications: listed as DNA, chemistry not fully specified
B39: cr114 (nucleic acid)
guide: B1 guide with C43T, C45T, G48A, G51A, G65A, A74C, T84G
modifications: listed as DNA, chemistry not fully specified
B40: cr079 (nucleic acid)
guide: B1 guide with T2G, T4C, C43G, G51C, G65A
modifications: listed as DNA, chemistry not fully specified
B41: cr436 (nucleic acid)
guide: B1 guide with T34G, C43G, G51C, A59T, G65A, T70A
modifications: listed as DNA, chemistry not fully specified

Test system: K562 CRISPRi cells
Test: Constant region variant library pooled growth screen, K562
Assay type: cell-based, human
In short: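 Pooled library transduced into K562 CRISPRi cells in duplicate, puromycin-selected, grown at >2000× coverage and sampled after 4 to 8 days. Phenotypes per targeting sequence:constant region pair were normalized to the unmodified-scaffold pairing to give relative activity.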

[1] = sgRNA constant region variant, activity relative to unmodified constant region cr995, mean CRISPRi activity
[2] = sgRNA constant region variants, activity relative to the original, un-modified constant region cr995

Row | Molecule | Mean relative activity [1] | Mean relative activity [2]
1 | B1 | 0.01313 | 
2 | B2 | 0.01022 | 
3 | B3 | 0.01294 | 
4 | B4 | 0.01125 | 
5 | B5 | 0.009911 | 
6 | B6 | 0.00969 | 
7 | B7 | 0.01012 | 
8 | B8 |  | 1.031
9 | B9 | 0.0113 | 
10 | B10 | 0.01166 | 
11 | B11 | 0.01061 | 
12 | B12 | 0.01243 | 
13 | B13 | 0.01125 | 
14 | B14 | 0.007887 | 
15 | B15 | 0.009805 | 
16 | B16 | 0.01078 | 
17 | B17 | 0.01145 | 
18 | B18 | 0.008268 | 
19 | B19 | 0.008305 | 
20 | B20 | 0.01022 | 
21 | B21 | 0.00928 | 

Row | Molecule | Mean relative activity [1] | Mean relative activity [2]
22 | B22 | 0.01138 | 
23 | B23 |  | 1.033
24 | B24 | 0.01236 | 
25 | B25 | 0.01273 | 
26 | B26 | 0.013 | 
27 | B27 | 0.009507 | 
28 | B28 | 0.01259 | 
29 | B29 | 0.01046 | 
30 | B30 | 0.009384 | 
31 | B31 | 0.01081 | 
32 | B32 |  | 1.032
33 | B33 | 0.008516 | 
34 | B34 | 0.01205 | 
35 | B35 | 0.01012 | 
36 | B36 |  | 1.032
37 | B37 | 0.009207 | 
38 | B38 | 0.009238 | 
39 | B39 | 0.008589 | 
40 | B40 | 0.01223 | 
41 | B41 | 0.008129 | 
